In patent US20210388118A1 (ZHEJIANG SHIMAI PHARMACEUTICAL, published 2021) one finds binding result and EC50 data, which are given here for six molecules.

The target in experiment [1] is T1, recombinant human EGFR (human, UniProt P00533 25-645).
T1 construct: Bought protein; construct not described; also called hEGFR
Description: ELISA, recombinant human EGFR coated, Fab. As to the method:
(§1) ELISA was performed according to standard protocols. Briefly, recombinant human or cynomolgus EGFR was coated on Corning EIA/RIA high-binding 96-well plates (Corning Inc.) at 50 ng per well overnight at 4° C. and blocked with 3% nonfat milk in PBS (pH7.4). Fivefold serially diluted antibodies were added and incubated at room temperature for 2 hours. The plates were washed with PBS containing 0.05% Tween 20. Bound Fab and IgG1s were detected by HRP-conjugated anti-FLAG tag antibody and HRP-conjugated anti-human IgG (Fc-specific) antibody, respectively. The assay was developed at room temperature with TMB substrate (Sigma-Aldrich) and monitored at 450 nm with a microplate reader. The half-maximal binding (EC₅₀) was calculated by fitting the data to the Langmuir adsorption isotherm.
A general note: In an ELISA, binding on a coated surface is turned into a signal by an enzyme label.

Experiment [2] has as its target T2, human EGFR on cells (HCT116, A549, A431, HT29) (human, UniProt P00533 25-1210).
T2 construct: whole, on cells; also called cell surface EGFR; cell-surface EGFR
Description: flow cytometry on A549 cells, Fab at 100 nM. As to the method:
To measure the binding of SMET5 Fab to cell surface EGFR, about 5×10⁵ cells were incubated with 100 nM antibody on ice for 1 h. The cells were washed once with PBS containing 0.1% bovine serum albumin (PBSA) and resuspended in 200 μl PBSA. Then 5 μl anti-His-PE conjugate was added and incubated for 30 min. The cells were washed once with PBSA and then used for flow cytometry analysis.

Experiment [3] has as its target T2, human EGFR on cells (HCT116, A549, …). Description: flow cytometry on A549 cells, 2 µg/mL. As to the method: To measure the binding of IgG1 s of SMET5 variants to cell surface EGFR, about 5×10⁵ cells were incubated with 2 μg mL⁻¹ antibodies on ice for 1 h. The cells were washed once with PBSA and resuspended in 200 μl PBSA. Then 5 μ1 goat F(ab′)2 anti-human IgG (γ)-FITC conjugate was added and incubated for 30 min. The cells were washed once with PBSA and then used for flow cytometry analysis.
A general note: A flow cytometer gives signals particle by particle.

Experiment [4] deals with T1, recombinant human EGFR. Description: ELISA, recombinant EGFR coated. The protocol: as §1
In experiment [5] the target is T1, recombinant human EGFR. Description: ELISA, recombinant human EGFR coated. The protocol: as §1
For experiment [6], the target named is T3, recombinant cynomolgus EGFR (cynomolgus, UniProt A0A2K5WK39 25-645).
T3 construct: Bought protein; construct not described
Description: ELISA, recombinant cynomolgus EGFR coated. As to the method: as §1

One may read the EC50 as the concentration giving half of the maximal effect.

B1: SMET5 Fab (Fab, V domains shown)
VH: EVQLVETGGGVVQPGRSLRLSCAASGFTFSSYAMHWVRQAPGKGLEWVAVISYDGSNKYYADSVKGRFTISRDNSKNTLYLQMNSLRAEDTAVYYCARGYVARGDFDYWGQGTLVTVSS
VL: DIQMTQSPSTLSASVGDRVTITCRASQTVDSWLAWYQQKPGKAPKLLIYATSSLQSGVPSRFSGSGSGTDFTLTISSLQPEDFATYYCQQGHIAPHTFGQGTTLEIK
notes: Human Fab from a phage library, expressed in E. coli, His-tagged and detected by anti-FLAG; also called SMETS
In the case of B1, the binding result (in the experiment with recombinant human EGFR [1]; in experiment [2]) was “binds” each time.

B2: SMET5.3 IgG1 (antibody, V domains shown)
VH: EVQLVETGGGVVQPGRSLRLSCAASGFTFSSYAMHWVRQAPGKGLEWVAVISYDGSNKYYADSVKGRFTISRDNSKNTLYLQMNSLRAEDTAVYYCARGYVARGDFDYWGQGTLVTVSS
VL: DIQLTQSPSTLSASVGDRVTITCRSNQTADSWLAWYQQKPGKAPNLLIYAASNLQSGVPSRFSGSGSGTDFTLTISSLQPEDFATYYCQQSYSTPFMFTFGQGTKLEIKR
notes: Human IgG1 from 293FS cells
Consider B2, for which the binding result (in experiment [3]; with recombinant human EGFR [4]) was “binds” throughout.

B3: SMET5 IgG1 (antibody, V domains shown)
VH: EVQLVETGGGVVQPGRSLRLSCAASGFTFSSYAMHWVRQAPGKGLEWVAVISYDGSNKYYADSVKGRFTISRDNSKNTLYLQMNSLRAEDTAVYYCARGYVARGDFDYWGQGTLVTVSS
VL: DIQMTQSPSTLSASVGDRVTITCRASQTVDSWLAWYQQKPGKAPKLLIYATSSLQSGVPSRFSGSGSGTDFTLTISSLQPEDFATYYCQQGHIAPHTFGQGTTLEIKR
notes: Human IgG1 from 293FS cells; also called SMETS IgG1
Regarding B3, the binding result (in experiment [3]; in the experiment with recombinant human EGFR [4]) was “binds” in each case.

B4: SMET5.2 IgG1 (antibody, V domains shown)
VH: EVQLVETGGGVVQPGRSLRLSCAASGFTFSSYAMHWVRQAPGKGLEWVAVISYDGSNKYYADSVKGRFTISRDNSKNTLYLQMNSLRAEDTAVYYCARGYVARGDFDYWGQGTLVTVSS
VL: DVVMTQSPSTLSASVGDRVTITCRASQSMSRWLAWYQQKPGKGPKLLIYATSTLQSGVPSRFSGSGSGTEFTLTISSLQPEDFATYYCQQLDSFPFSFTFGPGTKVDLKR
notes: Human IgG1 from 293FS cells
As for B4, the concentration for a half-maximal effect (EC50) in the experiment with recombinant human EGFR [5] stood at 1.4 nM; in experiment [6] it was 0.76 nM.

B5: SMET5.3 Fab (Fab, V domains shown)
VH: EVQLVETGGGVVQPGRSLRLSCAASGFTFSSYAMHWVRQAPGKGLEWVAVISYDGSNKYYADSVKGRFTISRDNSKNTLYLQMNSLRAEDTAVYYCARGYVARGDFDYWGQGTLVTVSS
VL: DIQLTQSPSTLSASVGDRVTITCRSNQTADSWLAWYQQKPGKAPNLLIYAASNLQSGVPSRFSGSGSGTDFTLTISSLQPEDFATYYCQQSYSTPFMFTFGQGTKLEIK
notes: His-tagged Fab
In the case of B5, the binding result with recombinant human EGFR [1] is “binds”.

B6: SMET5.4 Fab (Fab, V domains shown)
VH: EVQLVETGGGVVQPGRSLRLSCAASGFTFSSYAMHWVRQAPGKGLEWVAVISYDGSNKYYADSVKGRFTISRDNSKNTLYLQMNSLRAEDTAVYYCARGYVARGDFDYWGQGTLVTVSS
VL: DIQLTQSPSSVSASVGDRVTITCRASQGISSWLAWYQQKPGKAPKLLIYAASALQSGVPSRFSGSGSGTEFTLTIYDLQPDDFATYFCQQYDTFLWTFGQGTKVEIK
notes: His-tagged Fab
As to B6, the binding result in the experiment with recombinant human EGFR [1] is on record as “binds”.
